Patent publication US20180312587A1 (ADURO BIOTECH HOLDINGS EUROPE B V, published 2018)

T1: hSIRPα-VαC1βC2α (human, UniProt P78324 31-504)
T1 construct: domain exchange mutant
T1 chain: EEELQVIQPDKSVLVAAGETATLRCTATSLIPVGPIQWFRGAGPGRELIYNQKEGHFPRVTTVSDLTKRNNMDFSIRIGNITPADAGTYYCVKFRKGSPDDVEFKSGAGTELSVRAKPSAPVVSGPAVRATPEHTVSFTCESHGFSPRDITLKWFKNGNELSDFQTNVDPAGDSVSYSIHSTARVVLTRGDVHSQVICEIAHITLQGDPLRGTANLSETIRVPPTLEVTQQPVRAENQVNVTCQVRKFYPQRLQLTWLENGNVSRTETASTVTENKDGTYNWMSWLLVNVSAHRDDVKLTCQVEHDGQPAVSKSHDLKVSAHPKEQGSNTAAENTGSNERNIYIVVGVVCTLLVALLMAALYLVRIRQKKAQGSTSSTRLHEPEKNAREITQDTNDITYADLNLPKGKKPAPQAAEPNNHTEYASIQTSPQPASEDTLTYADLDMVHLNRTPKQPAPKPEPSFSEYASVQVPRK

T2: hSIRPα-VαC1αC2β (human, UniProt P78324 31-504)
T2 construct: domain exchange mutant
T2 chain: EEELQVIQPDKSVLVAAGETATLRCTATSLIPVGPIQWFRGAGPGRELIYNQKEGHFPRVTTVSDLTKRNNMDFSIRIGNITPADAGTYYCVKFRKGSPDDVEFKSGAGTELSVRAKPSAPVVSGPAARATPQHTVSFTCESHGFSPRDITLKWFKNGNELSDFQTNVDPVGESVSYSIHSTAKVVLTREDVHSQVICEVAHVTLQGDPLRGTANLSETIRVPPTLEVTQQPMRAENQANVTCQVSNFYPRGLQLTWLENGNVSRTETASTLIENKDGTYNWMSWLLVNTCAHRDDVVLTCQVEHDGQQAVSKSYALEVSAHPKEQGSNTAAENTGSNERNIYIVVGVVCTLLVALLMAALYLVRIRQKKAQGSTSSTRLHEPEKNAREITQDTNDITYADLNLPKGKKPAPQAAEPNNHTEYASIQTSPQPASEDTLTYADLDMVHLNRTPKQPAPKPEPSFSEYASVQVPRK

B1: hSIRPα.50A (antibody, V domains shown)
VH: QVQLQQSGPELVKPGASVRISCKASGFTFTNYYIHWVKQRPGQGLEWIGWIYPGNVNTKYNEKFKAKATLTADKSSTTAYMQLSSLASEDSAVYFCARPTIIATDFDVWGAGTTVTVSS
VL: DIVMTQSHKFMSTSVGDRVNITCKASQGVGTAVGWYQQKPGQSPRLLIYWASTRHTGVPDRFTGSGSGTDFSLAISNVQSEDLADYFCQQYSTYPFTFGGGTNLEIK
notes: light chain constant domain not tied; also called mouse hSIRPα.50A; hSIRPα.50A.mIgG1
B2: hSIRPα.40A (antibody, mouse IgG1, kappa, V domains shown)
VH: EVQFQQSGTVLARPGTSVKMSCKASGSTFTSYWMHWVKQGPGQGLQWIGAIYPVNNDTTYNQKFKGKAELTVVTSTSTAYMEVSSLTNEDSAVYYCTRSFYYSLDAAWFVYWGQGTLVTVSA
VL: DIQMTQSPSSLSASLGERVSLTCRASQDIGSRLNWLQQEPDGTIKRLIYATSSLDSGVPKRFSGSRSGSDYSLTISGLESEDFVDYYCLQYASSPFTFGGGTKLEINR
notes: mouse antibody, full chains without signal peptide; also called mouse hSIRPα.40A

Assays:
hSIRPαV9 (NA18943_V9) = target: T3, hSIRPαV9 (NA18943_V9) (human, UniProt P78324 31-504); assay: CELISA, CHO-K1 transfectants
T3 construct: also called human SIRPαV9
Description: The binding specificity of antibodies hSIRPα.40A and hSIRPα.50A to hSIRPα were compared in a CELISA format. In short, CHO-K1 cells were transiently transfected with hSIRPαV1, hSIRPαV2, hSIRPβ1, hSIRPβL, and hSIRPγ cDNAs. Subsequently, hSIRPα binding was assessed by CELISA using CHO-K1.hSIRPαV1, CHO-K1.hSIRPαV2, CHO-K1.hSIRPβ1, CHO-K1.hSIRPβL, and CHO-K1.hSIRPγ cells. Detection of bound antibody was done with goat-anti-mouse IgG-HRP (Southern Biotech).
In addition, the specificity of hSIRPα.40A for all known of hSIRPα alleles (allelic variants as described by Takenaka et al., Nat Immunol. 8:1313-1323 (2007) was further investigated by CELISA using the same strategy as above. To this end, hSIRPα.40A binding was assessed using CHO-K1 cells that were transiently transfected with cDNAs encoding full length hSIRPαV1, hSIRPαV2, hSIRPαV3 (NA07056_V3) (SEQ ID NO: 44), hSIRPαV4 (NA11832_V4) (SEQ ID NO: 46), hSIRPαV5 (NA18502_V5) (SEQ ID NO: 48), hSIRPαV6 (NA18507_V6) (SEQ ID NO: 50), hSIRPαV8 (NA18570_V8) (SEQ ID NO: 52), and hSIRPαV9 (NA18943_V9) (SEQ ID NO: 54).

human SIRPα variant 1 = target: T4, human SIRPα variant 1 (human, UniProt P78324 31-504); assay: CELISA, CHO-K1 transfectants, domain exchange study
T4 construct: full length ORF on transfected CHO-K1 or HEK293 cells; entry includes the signal peptide; also called hSIRPαV1; SIRPαV1
Excerpt: (§1) Based on the fold of SIRPα, the extracellular region can be subdivided into three separate domains: the Ig-like (immunoglobulin-like) V-type (IgV), Ig-like C1-type (IgC1), and Ig-like C2-type (IgC2) domain. The IgV domain is also known as the ligand-binding N-terminal domain of SIRPα (which binds to CD47). The human SIRPαV1/β1 mutants were designed on the basis of the full length hSIRPαV1 sequence (SEQ ID NO: 33) and each individual Ig-like domain was substituted for the equivalent domain of human SIRPβ1 (SEQ ID NO: 37). The cDNAs encoding the constructs, hSIRPα-VβC1αC2α (SEQ ID NO: 55), hSIRPα-VαC1βC2α (SEQ ID NO: 57), and hSIRPα-VaC1αC2β (SEQ ID NO: 59) were synthesized (GeneArt) and subcloned into the pCI-neo vector. Binding of hSIRPα.50A to the exchange mutants was tested using CELISA. To this end, CHO-K1 cells were transiently transfected, using Lipofectamine 2000, with the pCI-neo vectors encoding hSIRPαV1, hSIRPαV2, hSIRPβ1, hSIRPα-VβC1αC2α, hSIRPα-VαC1βC2α, and hSIRPα-VαC1αC2β, respectively. The transfected cells were cultured at 37° C., 5% CO₂ and 95% humidity in medium (DMEM-F12 (Gibco) with 5% New Born Calf serum (Biowest) and Pen/Strep (Gibco)) until confluent. Subsequently, cells were trypsinized and seeded in 96-well flat-bottom tissue culture plates and cultured at 37° C., 5% CO₂ and 95% humidity in culture medium until confluent. Then, culture medium was removed and cells were incubated for 1 hour at 37° C., 5% CO₂ and 95% humidity with hSIRPα.50A and anti-hSIRPα clone SE5A5 antibodies. Next, cells were washed with PBS-T and incubated for 1 hour at 37° C., 5% CO₂ and 95% humidity with goat-anti-mouse IgG-HRP conjugate (Southern Biotech). After that, cells were washed three times with PBS-T and anti-hSIRPα immunoreactivity was visualized with TMB Stabilized Chromogen (Invitrogen). Reactions were stopped with 0.5 M H₂SO₄ and absorbances were read at 450 and 610 nm.

human SIRPα variant 2 = target: T5, human SIRPα variant 2 (human, UniProt P78324 31-504); assay: as above
T5 construct: full length ORF on transfected CHO-K1 cells; also called hSIRPαV2; SIRPαV2
Excerpt: as §1

hSIRPα-VαC1βC2α = target: T1, hSIRPα-VαC1βC2α; assay: as above
Excerpt: as §1

hSIRPα-VαC1αC2β = target: T2, hSIRPα-VαC1αC2β; assay: as above
Excerpt: as §1

Binder	EC50 (hSIRPαV9 (NA18943_V9))	EC50 (human SIRPα variant 1)	EC50 (human SIRPα variant 2)	EC50 (hSIRPα-VαC1βC2α)	EC50 (hSIRPα-VαC1αC2β)
B1	1.37 nM	0.321 nM	0.215 nM	0.345 nM	0.408 nM
B2	0.115 nM				
